According to the Immune Epitope Database (IEDB):

Columns and labels:
[1] = biological target: HLA-A*26:01; assay: IEDB peptide-MHC binding, purified MHC/competitive/fluorescence; filed as Kd, often an IC50 or EC50 that approximates it; ≥ and ≤ were set here for values at or beyond the usual limits of such assays
[2] = biological target: HLA-B*46:01; assay: as above
[3] = biological target: HLA-B*15:17; assay: as above
[4] = biological target: HLA-B*27:03; assay: as above
[5] = biological target: HLA-B*57:01; assay: as above
[6] = biological target: HLA-B*18:01; assay: as above
[7] = biological target: HLA-A*02:01; assay: as above
[8] = biological target: HLA-B*51:01; assay: as above
[9] = biological target: HLA-A*24:03; assay: as above; settings: source organism: Orthohantavirus delgaditoense
[10] = biological target: HLA-B*39:01; assay: as above
[11] = biological target: HLA-A*69:01; assay: as above; settings: source organism: Orthohantavirus delgaditoense
[12] = biological target: HLA-A*02:19; assay: IEDB peptide-MHC binding, purified MHC/direct/fluorescence; filed as Kd, often an IC50 or EC50 that approximates it; ≥ and ≤ were set here for values at or beyond the usual limits of such assays
[13] = biological target: HLA-A*02:11; assay: as above
[14] = biological target: HLA-A*02:03; assay: as above
[15] = biological target: HLA-A*02:16; assay: as above
[16] = biological target: HLA-A*03:01; assay: as above
[17] = biological target: HLA-A*68:02; assay: as above
[18] = biological target: HLA-A*02:12; assay: as above
[19] = biological target: HLA-A*29:02; assay: as above
[20] = biological target: HLA-A*23:01; assay: as above
[21] = biological target: HLA-A*02:19; assay: IEDB peptide-MHC binding, purified MHC/competitive/fluorescence; filed as Kd, often an IC50 or EC50 that approximates it; ≥ and ≤ were set here for values at or beyond the usual limits of such assays; settings: source organism: Campylobacter jejuni subsp. jejuni NCTC 11168 = ATCC 700819
[22] = biological target: HLA-A*02:11; assay: as above
[23] = biological target: HLA-A*02:03; assay: as above
[24] = biological target: HLA-A*03:01; assay: as above; settings: source organism: Campylobacter jejuni subsp. jejuni NCTC 11168 = ATCC 700819
[25] = biological target: HLA-A*02:12; assay: as above; settings: source organism: Campylobacter jejuni subsp. jejuni NCTC 11168 = ATCC 700819
[26] = biological target: HLA-A*29:02; assay: as above; settings: source organism: Campylobacter jejuni subsp. jejuni NCTC 11168 = ATCC 700819
[27] = biological target: HLA-B*15:01; assay: as above; settings: source organism: Campylobacter jejuni subsp. jejuni NCTC 11168 = ATCC 700819
[28] = biological target: HLA-A*02:06; assay: as above; settings: source organism: Human immunodeficiency virus 1
[29] = biological target: HLA-A*26:01; assay: IEDB peptide-MHC binding, purified MHC/direct/fluorescence; filed as Kd, often an IC50 or EC50 that approximates it; ≥ and ≤ were set here for values at or beyond the usual limits of such assays; settings: source organism: Giardia lamblia ATCC 50803
[30] = biological target: HLA-B*46:01; assay: as above; settings: source organism: Giardia lamblia ATCC 50803
[31] = biological target: HLA-B*15:17; assay: as above; settings: source organism: Giardia lamblia ATCC 50803
[32] = biological target: HLA-B*27:03; assay: as above; settings: source organism: Giardia lamblia ATCC 50803
[33] = biological target: HLA-B*57:01; assay: as above; settings: source organism: Giardia lamblia ATCC 50803
[34] = biological target: HLA-B*18:01; assay: as above; settings: source organism: Giardia lamblia ATCC 50803
[35] = biological target: HLA-A*02:01; assay: as above; settings: source organism: Giardia lamblia ATCC 50803
[36] = biological target: HLA-B*15:01; assay: as above; settings: source organism: Giardia lamblia ATCC 50803
[37] = biological target: HLA-B*51:01; assay: as above; settings: source organism: Giardia lamblia ATCC 50803
[38] = biological target: HLA-A*24:03; assay: as above; settings: source organism: Giardia lamblia ATCC 50803
[39] = biological target: HLA-B*39:01; assay: as above; settings: source organism: Giardia lamblia ATCC 50803
[40] = biological target: HLA-A*69:01; assay: as above; settings: source organism: Giardia lamblia ATCC 50803
[41] = source organism: Orthohantavirus delgaditoense
[42] = source organism: Rio Mearim virus
[43] = source organism: Campylobacter jejuni subsp. jejuni NCTC 11168 = ATCC 700819
[44] = source organism: Human immunodeficiency virus 1
[45] = source organism: Giardia lamblia ATCC 50803
[46] = source organism: Toxoplasma gondii

DWMERIEDF
Kd [1, 41]: ≥ 20 µM
Kd [2, 41]: ≥ 20 µM
Kd [3, 41]: ≥ 20 µM
Kd [4, 41]: ≥ 20 µM
Kd [5, 41]: ≥ 20 µM
Kd [6, 41]: ≥ 20 µM
Kd [7, 41]: ≥ 20 µM
Kd [8, 41]: ≥ 20 µM
Kd [9]: ≥ 20 µM
Kd [10, 41]: ≥ 20 µM
Kd [11]: ≥ 20 µM
Kd [12, 42]: ≥ 20 µM
Kd [13, 42]: ≥ 20 µM
Kd [14, 42]: ≥ 20 µM
Kd [15, 42]: ≥ 20 µM
Kd [16, 42]: ≥ 20 µM
Kd [17, 42]: ≥ 20 µM
Kd [18, 42]: ≥ 20 µM
Kd [19, 42]: ≥ 20 µM
Kd [20, 42]: ≥ 20 µM

FTFERSKIK
Kd [21]: ≥ 20 µM
Kd [1, 43]: ≥ 20 µM
Kd [22, 43]: ≥ 20 µM
Kd [23, 43]: ≥ 20 µM
Kd [2, 43]: ≥ 20 µM
Kd [3, 43]: ≥ 20 µM
Kd [4, 43]: ≥ 20 µM
Kd [5, 43]: ≥ 20 µM
Kd [24]: 0.2 µM
Kd [25]: ≥ 20 µM
Kd [6, 43]: ≥ 20 µM
Kd [7, 43]: ≥ 20 µM
Kd [26]: ≥ 20 µM
Kd [27]: ≥ 20 µM
Kd [8, 43]: ≥ 20 µM
Kd [10, 43]: ≥ 20 µM

LNTVATLY
Kd [23, 44]: 0.291 µM
Kd [3, 44]: 2.75 µM
Kd [28]: 0.0564 µM
Kd [7, 44]: 0.0559 µM
Kd [10, 44]: ≥ 20 µM

MHYGYNRAN
Kd [12, 45]: ≥ 20 µM
Kd [29]: ≥ 20 µM
Kd [13, 45]: ≥ 20 µM
Kd [14, 45]: ≥ 20 µM
Kd [30]: ≥ 20 µM
Kd [31]: ≥ 20 µM
Kd [15, 45]: ≥ 20 µM
Kd [32]: ≥ 20 µM
Kd [33]: ≥ 20 µM
Kd [16, 45]: ≥ 20 µM
Kd [17, 45]: ≥ 20 µM
Kd [18, 45]: ≥ 20 µM
Kd [34]: ≥ 20 µM
Kd [35]: ≥ 20 µM
Kd [19, 45]: ≥ 20 µM
Kd [36]: ≥ 20 µM
Kd [20, 45]: ≥ 20 µM
Kd [37]: ≥ 20 µM
Kd [38]: ≥ 20 µM
Kd [39]: ≥ 20 µM
Kd [40]: ≥ 20 µM

SVVEENTMA
Kd [22, 46]: 0.183 µM
Kd [7, 46]: ≥ 20 µM
